31 molecules from article PMC3206016, “Putting into Practice Domain-Linear Motif Interaction Predictions for Exploration of Protein Networks” (PLoS ONE, 2011) can be followed below.

B4: MAGI1-3/6 (MBP fusion of the third of the six PDZ domains of MAGI1) (domain or fragment)
chain: SHGYPNDTVSLASSIATQPELITVHIVKGPMGFGFTIADSPGGGGQRVKQIVDSPRCRGLKEGDLIVEVNKKNVQALTHNQVVDMLIECPKGSEVTLLVQRGGLPVPKKSPKSQPLERKDSQNSSQHSVSSHRSLHTASP
notes: source: E. coli BL21 DE3, purified (amylose column, Superdex 75 gel filtration)
B6: SCRIB-34/4 (MBP fusion of the tandem of the third and fourth PDZ domains of SCRIB) (domain or fragment)
chain: EGPYPVEEIRLPRAGGPLGLSIVGGSDHSSHPFGVQEPGVFISKVLPRGLAARSGLRVGDRILAVNGQDVRDATHQEAVSALLRPCLELSLLVRRDPAPPGLRELCIQKAPGERLGISIRGGARGHAGNPRDPTDEGIFISKVSPTGAAGRDGRLRVGLRLLEVNQQSLLGLTHGEAVQLLRSVGDTLTVLVCDGFE
notes: also called MBP-PDZ analyte SCRIB-34/4; tandem PDZ construct; source: E. coli BL21 DE3, purified (amylose column, Superdex 75 gel filtration)
B11: MAGI1-2/6 (MBP fusion of the second of the six PDZ domains of MAGI1) (domain or fragment)
chain: KPFFTRNPSELKGKFIHTKLRKSSRGFGFTVVGGDEPDEFLQIKSLVLDGPAALDGKMETGDVIVSVNDTCVLGHTHAQVVKIFQSIPIGASVDLELCRGYPLPFDPDDPNTSLVTSVAILDKEP
notes: as for B4

Ends that are not written are not given here. * marks the point of attachment. Biotin = O=C1N[C@H]2[C@H](CS[C@H]2CCCCC(=O)*)N1

Test in all cases: SPR
Common to all, as to conditions: both partners purified

Assay [1] has as its target B11.
For assay [2], the target named is B4.
The target of assay [3] is T1, SCRIB-3/4 (MBP fusion of the third of the four PDZ domains of SCRIB) (human, UniProt Q14160-1 997-1093).
T1 construct: also called MBP-PDZ analyte SCRIB-3/4; source: E. coli BL21 DE3, purified (amylose column, Superdex 75 gel filtration)
T1 sequence (looked up): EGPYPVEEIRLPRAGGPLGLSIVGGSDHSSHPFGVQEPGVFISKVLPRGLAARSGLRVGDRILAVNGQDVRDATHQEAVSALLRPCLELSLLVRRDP

In assay [4] the target is B6.
Assay [5] deals with T2, TAX1_05 (short peptide of the Trans-activating transcriptional regulatory protein of HTLV-1: GSGAG a (HTLV-1A, biotin at N-terminus)).
T2 construct: source: synthetic peptide (JPT Peptide Technologies)

In assay [6] the target is T1, SCRIB-3/4 (MBP fusion of the third of …). This is another data set of the same source.
For assay [7], the target named is B6. This is another data set of the same source.
For assay [8], the target named is T3, 16E6_05 (short peptide of HPV16 early protein E6: GSGAG and the last five residues) (human papilloma virus 16, biotin at N-terminus).
T3 construct: also called 16E6 short; source: synthetic peptide (JPT Peptide Technologies)

Assay [9] concerns the target T1, SCRIB-3/4 (MBP fusion of the third of …). The source holds these as a separate data set.
Assay [10] addresses B6. The source holds these as a separate data set.
The target in assay [11] is B4. The source holds these as a separate data set.
Assay [12] deals with B11. The source holds these as a separate data set.
Assay [13] has as its target B4. The source holds these as a separate data set.
Assay [14] deals with B11. The source holds these as a separate data set.
Assay [15] addresses T1, SCRIB-3/4 (MBP fusion of the third of …). This is another data set of the same source.
Assay [16] concerns the target B6. This is another data set of the same source.

B1: NET1_10 (long peptide of Neuroepithelial cell-transforming gene 1 protein: the last ten residues) (peptide)
peptide: Biotin-SGGKRKETLV
notes: also called NET1 long; source: synthetic peptide (JPT Peptide Technologies)
As to B1, the Kd in [1] was determined as 3 µM; in assay [2] it was 37 µM; in [3] it was 217 µM; in [4], 63 µM.

B2: NET1_05 (short peptide of Neuroepithelial cell-transforming gene 1 protein: GSGAG and the last five residues) (peptide)
peptide: Biotin-GSGAGKETLV
notes: also called NET1 short; source: synthetic peptide (JPT Peptide Technologies)
As for B2, the Kd in [1] amounted to 62 µM; in assay [2], 23 µM; in assay [3], 308 µM; in assay [4], 15 µM.

B3: ABC1_05 (short peptide of ATP-binding cassette sub-family A member 1: GSGAG and the last five residues) (peptide)
peptide: Biotin-GSGAGKESYV
notes: also called ABC1 short; source: synthetic peptide (JPT Peptide Technologies)
On to B3, for which the equilibrium dissociation constant (Kd) was determined as 91 µM in [1], 26 µM in assay [2], 229 µM in assay [3] and 10 µM in assay [4].
B4 had a Kd in [5] of 75 µM. This counts as double-digit micromolar.

B5: VANG2_10 (long peptide of Vang-like protein 2: the last ten residues) (peptide)
peptide: Biotin-VMRLQSETSV
notes: also called VANG2 long; source: synthetic peptide (JPT Peptide Technologies)
As for B5, the Kd was determined as 12 µM in assay [6] and 5 µM in assay [7].
In the case of B6, the Kd in assay [8] and in [5] was 1 µM each time.

B7: DLL1_10 (long peptide of Delta-like protein 1: the last ten residues) (peptide)
peptide: Biotin-KDECVIATEV
notes: also called DLL1 long; source: synthetic peptide (JPT Peptide Technologies)
On to B7, for which the Kd worked out at 238 µM in [2] and 172 µM in assay [3].

B8: GLAST_05 (short peptide of Excitatory amino acid transporter 1: GSGAG and the last five residues) (peptide)
peptide: Biotin-GSGAGSETKM
notes: also called GLAST short; source: synthetic peptide (JPT Peptide Technologies)
For the molecule B8, the Kd in assay [9] stood at 182 µM; in assay [10], 179 µM.

B9: PTEN_10 (long peptide of PTEN: the last ten residues) (peptide)
peptide: Biotin-EDQHTQITKV
notes: also called PTEN long; source: synthetic peptide (JPT Peptide Technologies)
On to B9, for which the dissociation constant (Kd) in assay [11] was 144 µM.

B10: DLL1_05 (short peptide of Delta-like protein 1: GSGAG and the last five residues) (peptide)
peptide: Biotin-GSGAGIATEV
notes: also called DLL1 short; source: synthetic peptide (JPT Peptide Technologies)
Consider B10, for which the values for the Kd in assay [1], in assay [2] and in [3] were 32 µM, 246 µM and 200 µM, respectively.
With B11, the figures for the Kd in assay [8] and in assay [5] were 7 µM and 33 µM, respectively.

B12: MAS_05 (short peptide of Proto-oncogene Mas: GSGAG and the last five residues) (peptide)
peptide: Biotin-GSGAGVETVV
notes: also called MAS short; source: synthetic peptide (JPT Peptide Technologies)
For B12, the Kd came out at 2740 µM in assay [12], 90 µM in [13], 158 µM in assay [6] and 16 µM in assay [7].

B13: ARHGAP6_05 (short peptide of Rho GTPase-activating protein 6: GSGAG and the last five residues) (peptide)
peptide: Biotin-GSGAGPETLV
notes: also called ARHGAP6 short; source: synthetic peptide (JPT Peptide Technologies)
On to B13, for which the Kd in [1] stood at 2000 µM; in [2], 58 µM; in assay [3] it was 216 µM; in [4], 31 µM.

B14: VANG2_05 (short peptide of Vang-like protein 2: GSGAG and the last five residues) (peptide)
peptide: Biotin-GSGAGSETSV
notes: also called VANG2 short; source: synthetic peptide (JPT Peptide Technologies)
On to B14, for which the Kd worked out at 24 µM in assay [6] and 4 µM in assay [7].

B15: MARCH3_05 (short peptide of E3 ubiquitin-protein ligase MARCH3: GSGAG and the last five residues) (peptide)
peptide: Biotin-GSGAGKETVV
notes: also called MARCH3 short; source: synthetic peptide (JPT Peptide Technologies)
Consider B15, for which the Kd in [12] came out at 225 µM; in assay [6], 46 µM; in assay [7] it was 7 µM.

B16: FZD4_10 (long peptide of Frizzled-4: the last ten residues) (peptide)
peptide: Biotin-KPGKGSETVV
notes: also called FZD4 long; source: synthetic peptide (JPT Peptide Technologies)
On to B16, for which the Kd in assay [14] is 23 µM.

B17: ARHGAP6_10 (long peptide of Rho GTPase-activating protein 6: the last ten residues) (peptide)
peptide: Biotin-NPDALPETLV
notes: also called ARHGAP6 long; source: synthetic peptide (JPT Peptide Technologies)
B17: the Kd worked out at 18 µM in assay [1], 41 µM in assay [2], 541 µM in assay [3] and 28 µM in assay [4].

B18: ATP1A1_10 (long peptide of Sodium/potassium-transporting ATPase subunit alpha-1: the last ten residues) (peptide)
peptide: Biotin-GGWVEKETYY
notes: also called ATP1A1 long; source: synthetic peptide (JPT Peptide Technologies)
In [9], B18 registered a Kd of 88 µM. This counts as double-digit micromolar.

B19: PTEN_05 (short peptide of PTEN: GSGAG and the last five residues) (peptide)
peptide: Biotin-GSGAGQITKV
notes: also called PTEN short; source: synthetic peptide (JPT Peptide Technologies)
As for B19, in assay [11], binding was put at a Kd of 453 µM.

B20: TMEM215_05 (short peptide of Transmembrane protein 215: GSGAG and the last five residues) (peptide)
peptide: Biotin-GSGAGHETIV
notes: also called TMEM215 short; source: synthetic peptide (JPT Peptide Technologies)
For B20, the Kd in assay [13] was found to be 116 µM; in [6] it was 213 µM; in assay [7], 15 µM.

B21: GLUT7_10 (long peptide of Solute carrier family 2, facilitated glucose transporter member 7: the last ten residues) (peptide)
peptide: Biotin-TASPAKETSF
notes: also called GLUT7 long; source: synthetic peptide (JPT Peptide Technologies)
Take B21: the Kd in assay [15] came out at 45 µM; in assay [16], 5 µM.

B22: MARCH3_10 (long peptide of E3 ubiquitin-protein ligase MARCH3: the last ten residues) (peptide)
peptide: Biotin-VKRNSKETVV
notes: also called MARCH3 long; source: synthetic peptide (JPT Peptide Technologies)
B22: the Kd in assay [12] came to 103 µM; in [13] it was 686 µM; in [6], 100 µM; in assay [7] it was 16 µM.

B23: FZD4_05 (short peptide of Frizzled-4: GSGAG and the last five residues) (peptide)
peptide: Biotin-GSGAGSETVV
notes: also called FZD4 short; source: synthetic peptide (JPT Peptide Technologies)
Take B23: the Kd in [12] is 146 µM.

B24: CYSLTR2_10 (long peptide of Cysteinyl leukotriene receptor 2: the last ten residues) (peptide)
peptide: Biotin-SVWLRKETRV
notes: also called CYSLTR2 long; source: synthetic peptide (JPT Peptide Technologies)
Turning to B24, the Kd worked out at 4 µM in assay [14], 34 µM in assay [9] and 15 µM in [10].

B25: ATP1A1_05 (short peptide of Sodium/potassium-transporting ATPase subunit alpha-1: GSGAG and the last five residues) (peptide)
peptide: Biotin-GSGAGKETYY
notes: also called ATP1A1 short; source: synthetic peptide (JPT Peptide Technologies)
B25: the Kd in assay [9] is 1280 µM. This lies in the millimolar range.

B26: SCRIB-4/4 (MBP fusion of the fourth of the four PDZ domains of SCRIB) (domain or fragment)
chain: GLRELCIQKAPGERLGISIRGGARGHAGNPRDPTDEGIFISKVSPTGAAGRDGRLRVGLRLLEVNQQSLLGLTHGEAVQLLRSVGDTLTVLVCDGFE
notes: also called MBP-PDZ analyte SCRIB-4/4; source: E. coli BL21 DE3, purified (amylose column, Superdex 75 gel filtration)
Consider B26, for which binding in assay [5] was put at a Kd of 50 µM. In other words, the double-digit micromolar range.

B27: TANC1_05 (short peptide of Tetratricopeptide repeat, ankyrin repeat and coiled-coil domain-containing protein 1: GSGAG and the last five residues) (peptide)
peptide: Biotin-GSGAGIESNV
notes: also called TANC1 short; source: synthetic peptide (JPT Peptide Technologies)
For the molecule B27, the Kd in assay [11] was determined as 14 µM; in assay [15] it was 498 µM; in assay [16], 9 µM.

B28: ADAM17_10 (long peptide of Disintegrin and metalloproteinase domain-containing protein 17: the last ten residues) (peptide)
peptide: Biotin-NRVDSKETEC
notes: also called ADAM17 long; source: synthetic peptide (JPT Peptide Technologies)
Regarding B28, the values for the Kd in assay [6], in [9] and in assay [10] were 97 µM, 79 µM and 8 µM, respectively.

B29: GLUT7_05 (short peptide of Solute carrier family 2, facilitated glucose transporter member 7: GSGAG and the last five residues) (peptide)
peptide: Biotin-GSGAGKETSF
notes: also called GLUT7 short; source: synthetic peptide (JPT Peptide Technologies)
B29: the Kd in [15] was determined as 56 µM; in assay [16] it was 5 µM.

B30: TMEM215_10 (long peptide of Transmembrane protein 215: the last ten residues) (peptide)
peptide: Biotin-QGRWDHETIV
notes: also called TMEM215 long; source: synthetic peptide (JPT Peptide Technologies)
For the molecule B30, the Kd in assay [13] was 67 µM; in assay [6] it was 128 µM; in assay [7], 9 µM.

B31: ABC1_10 (long peptide of ATP-binding cassette sub-family A member 1: the last ten residues) (peptide)
peptide: Biotin-QDEKVKESYV
notes: also called ABC1 long; source: synthetic peptide (JPT Peptide Technologies)
With B31, the Kd was 45 µM in assay [1], 20 µM in [2], 107 µM in assay [3] and 8 µM in [4].

A word on the Kd: it is the concentration at which binding is half-saturated. Low values mean higher affinity, high ones lower affinity.
